# Experimental data as given in US20230400471A1, “SYSTEMS, COMPOSITIONS AND METHODS OF DETERMINING VIABILITY OF EMBRYOS USING THE SAME” (BioIncept, LLC, priority 2020, published 2023).
# Where “and” joins values, the source holds several entries; their conditions need not be identical. Identical values can stand only once. Like-named read-outs stand apart in the source and are kept apart here. Ends that are not written are not given here.
# B1: rabbit monoclonal anti-PIF antibody Clone #30 (antibody, V domains shown)
# VH: RSLEESGGRLVTPGTPLTLTCTVSGIDLSTYSMSWVRQAPGEGLEWIATINTGGSAYYANWAKGRFTISKTSTTVTLKMTSLTTEDTATYFCARTISADNLWGHGTLVTVSS
# VL: QVLTQTPSSVSAAVGSTVTISCQSSQSVYSDYLSWYQQKPGQPPKRLIYAAFTLASGVPSRFKGSGSEKQFTLTISDLECDDAATYYCAAIYSNDIWAFGGGTEVVVK
# B2: Clone #30: Rabbit monoclonal antibody against human PIF peptide; heavy chain SEQ ID NO: 2, light chain SEQ ID NO: 7 (antibody, listed as Homo sapiens)
# heavy: METGLRWLLLVAVLKGVQCRSLEESGGRLVTPGTPLTLTCTVSGIDLSTYSMSWVRQAPGEGLEWIATINTGGSAYYANWAKGRFTISKTSTTVTLKMTSLTTEDTATYFCARTISADNLWGHGTLVTVSSGQPKAPSVFPLAPCCGDTPSSTVTLGCLVKGYLPEPVTVTWNSGTLTNGVRTFPSVRQSSGLYSLSSVVSVTSSSQPVTCNVAHPATNTKVDKTVAPSTCSKPTCPPPELLGGPSVFIFPPKPKDTLMISRTPEVTCVVVDVSQ
# light: MDTRAPTQLLGLLLLWLPGATFAQVLTQTPSSVSAAVGSTVTISCQSSQSVYSDYLSWYQQKPGQPPKRLIYAAFTLASGVPSRFKGSGSEKQFTLTISDLECDDAATYYCAAIYSNDIWAFGGGTEVVVKGDPVAPTVLIFPPSADQVATGTVTIVCVANKYFPDVTVTWEVDGTTQTTGIENSKTPQNSADCTYNLSSTLTLTSTQYNSHKEYTCKVTQGTTSVVQSFNRGDC
# Tests used:
# [1] = tested on: rabbit anti-PIF polyclonal antibody; assay: PIF colorimetric ELISA using rabbit polyclonal antibody, epitope mapping with PIF peptides of various length; format: binding; conditions: for % recovery by Rabbit Polyclonal Antibody: representative value of three repeats
# Method: (§1) To study PIF peptide and its derivatives of different length for binding to rabbit anti-PIF monoclonal antibody and rabbit anti-PIF polyclonal antibody, PIF peptides of various lengths as listed in Table 2 was synthesized, reconstituted in PBS and two different concentrations were tested by respective colorimetric ELISA following standard protocol. The standards were run in duplicate and the samples were run in triplicate and repeated three times.
# [2] = tested on: rabbit anti-PIF monoclonal antibody; assay: PIF colorimetric ELISA using rabbit anti-PIF monoclonal antibody, epitope mapping with PIF peptides of various length; format: binding; conditions: for % Recovery by Rabbit Monoclonal Antibody: representative value of three repeats
# Method: as §1
# [3] = target: T1, rabbit monoclonal anti-PIF antibody Clone #30; assay: competitive ELISA; Clone #30 via goat anti-rabbit; competitor biotin-PIF tracer
# T1 chain 1: B1 VH
# T1 chain 2: B1 VL
# [4] = target: T1, rabbit monoclonal anti-PIF antibody …; assay: as above
# [5] = target: T1, rabbit monoclonal anti-PIF antibody …; assay: competitive microarray immunoassay; Clone #30 on goat anti-rabbit spots; competitor A647-sPIF tracer
# [6] = target: T1, rabbit monoclonal anti-PIF antibody …; assay: ELISA; Clone #30 via goat anti-rabbit; biotin-PIF tracer without unlabeled PIF
# [7] = target: T2, preimplantation factor (PIF), full-length 15-amino acid peptide (human); assay: SPR, Clone #30 captured on sheep anti-rabbit CM5 chip, PIF as analyte, global 1:1 fit
# [8] = target: T2, preimplantation factor (PIF), …; assay: SPR: Clone #30 captured (about 2000 RU) on sheep anti-rabbit antibody amine-coupled to a CM5 chip; PIF as analyte in a 2-fold series up to 10 µM; global 1:1 fit
# [9] = target: T2, preimplantation factor (PIF), …; assay: as above; remark: listed apart in the source
# PIF = assay: Surface plasmon resonance (SPR), captured Clone #30 with PIF as analyte; format: binding, human; conditions: PIF 2-fold concentration series up to 10 μM, duplicate
# Source text: (§2) The PIF-binding specificity of the rabbit monoclonal antibody Clone #30 described in Example 1 was quantitatively characterized by surface plasmon resonance (SPR). SPR is an optical technique for detecting the interaction of two different molecules in which one is mobile and one is fixed on a thin gold film. In SPR analysis, affinity-purified ligand polypeptides are immobilized on a sensor chip inserted into the flow chamber of an instrument, such as Biacore 3000 instrument (Biacore, Uppsala, Sweden). Addition of a second polypeptide, the flow-through analyte, to the chamber, results in binding to the immobilized polypeptide ligand, producing a small change in refractive index at the gold surface, which can be quantified with precision. Binding affinities can be obtained from the ratio of rate constants, yielding a straightforward characterization of protein-protein interaction.
# (§3) In the work described here, purified rabbit monoclonal antibody Clone #30 was used as the ligand polypeptide and PIF in solution was used as the analyte to evaluate their binding affinity. To immobilize rabbit monoclonal antibody Clone #30 onto a chip, a sheep polyclonal anti-rabbit antibody was used. The sheep anti-rabbit antibody was amine coupled to a CM5 sensor chip using standard NHS/EDC activation. […]
# scrambled PIF (SCR) = assay: Surface plasmon resonance (SPR), captured Clone #30 with scrambled PIF as analyte; format: binding; conditions: SCR 2-fold concentration series up to 10 μM, duplicate
# Source text: as §2, §3
# [10] = Table 3, spike concentration not given
molecule,measurement,setting,value
"P1-14: PIF peptide, amino acid locations 1-14 (M V R I K P G S A N K P S D) (MVRIKPGSANKPSD) [Clone P1-14]",recovery by PIF colorimetric ELISA using rabbit polyclonal antibody,[1]; [10],about 40%
same,% recovery by Rabbit Polyclonal Antibody,[1]; spike concentration 100 ng/ml,44.6%
same,% recovery by Rabbit Polyclonal Antibody,[1]; spike concentration 200 ng/ml,30.0%
same,recovery by PIF colorimetric ELISA using rabbit anti-PIF monoclonal antibody,[2]; [10],about 3.8%
same,% Recovery by Rabbit Monoclonal Antibody,[2]; spike concentration 100 ng/ml,3.8%
same,% Recovery by Rabbit Monoclonal Antibody,[2]; spike concentration 200 ng/ml,3.8%
"P5-10: PIF peptide, amino acid locations 5-10 (K P G S A N) (KPGSAN) [Clone P5-10]",% recovery by Rabbit Polyclonal Antibody,[1]; spike concentration 100 ng/ml,0%
same,% recovery by Rabbit Polyclonal Antibody,[1]; spike concentration 200 ng/ml,0%
same,% Recovery by Rabbit Monoclonal Antibody,[2]; spike concentration 100 ng/ml,0%
same,% Recovery by Rabbit Monoclonal Antibody,[2]; spike concentration 200 ng/ml,0%
"MVRIKPGSANKPSDD (modifications not checked) [preimplantation factor (PIF), full-length 15-amino acid peptide]",% Bound at 1 pg/mL,[3],96.6%
same,% Bound at 10 pg/mL,[3],93.6%
same,% Bound at 25 pg/mL,[3],91.1%
same,% Bound at 250 pg/mL,[3],81.4%
same,% Bound at 500 pg/mL,[3],69.9%
same,AvgNetRLU at 1 pg/mL,[3],2.3e+07 RLU
same,AvgNetRLU at 10 pg/mL,[3],2.23e+07 RLU
same,AvgNetRLU at 25 pg/mL,[3],2.16e+07 RLU
same,AvgNetRLU at 250 pg/mL,[3],1.93e+07 RLU
same,AvgNetRLU at 500 pg/mL,[3],1.66e+07 RLU
same,MeanValues (RLU) at 1 pg/mL,[3],2.82e+07 RLU
same,MeanValues (RLU) at 10 pg/mL,[3],2.74e+07 RLU
same,MeanValues (RLU) at 25 pg/mL,[3],2.68e+07 RLU
same,MeanValues (RLU) at 250 pg/mL,[3],2.45e+07 RLU
same,MeanValues (RLU) at 500 pg/mL,[3],2.18e+07 RLU
same,Values (RLU) at 1 pg/mL,[3],2.86e+07 RLU and 2.77e+07 RLU
same,Values (RLU) at 10 pg/mL,[3],2.79e+07 RLU and 2.7e+07 RLU
same,Values (RLU) at 25 pg/mL,[3],2.72e+07 RLU and 2.65e+07 RLU
same,Values (RLU) at 250 pg/mL,[3],2.48e+07 RLU and 2.43e+07 RLU
same,Values (RLU) at 500 pg/mL,[3],2.23e+07 RLU and 2.13e+07 RLU
same,% Bound at 1 pg/mL,[4],93.7%
same,% Bound at 5 pg/mL,[4],92.8%
same,% Bound at 10 pg/mL,[4],91.7%
same,% Bound at 25 pg/mL,[4],90%
same,% Bound at 50 pg/mL,[4],87%
same,% Bound at 100 pg/mL,[4],89.9%
same,% Bound at 250 pg/mL,[4],77.3%
same,% Bound at 500 pg/mL,[4],61.1%
same,% Bound at 1000 pg/mL,[4],49.8%
same,% Bound at 2000 pg/mL,[4],27%
same,AvgNetRLU at 1 pg/mL,[4],2.23e+07 RLU
same,AvgNetRLU at 5 pg/mL,[4],2.21e+07 RLU
same,AvgNetRLU at 10 pg/mL,[4],2.18e+07 RLU
same,AvgNetRLU at 25 pg/mL,[4],2.14e+07 RLU
same,AvgNetRLU at 50 pg/mL,[4],2.07e+07 RLU
same,AvgNetRLU at 100 pg/mL,[4],2.14e+07 RLU
same,AvgNetRLU at 250 pg/mL,[4],1.84e+07 RLU
same,AvgNetRLU at 500 pg/mL,[4],1.45e+07 RLU
same,AvgNetRLU at 1000 pg/mL,[4],1.18e+07 RLU
same,AvgNetRLU at 2000 pg/mL,[4],6.41e+06 RLU
same,MeanValue (RLU) at 1 pg/mL,[4],2.75e+07 RLU
same,MeanValue (RLU) at 5 pg/mL,[4],2.73e+07 RLU
same,MeanValue (RLU) at 10 pg/mL,[4],2.7e+07 RLU
same,MeanValue (RLU) at 25 pg/mL,[4],2.66e+07 RLU
same,MeanValue (RLU) at 50 pg/mL,[4],2.59e+07 RLU
same,MeanValue (RLU) at 100 pg/mL,[4],2.66e+07 RLU
same,MeanValue (RLU) at 250 pg/mL,[4],2.36e+07 RLU
same,MeanValue (RLU) at 500 pg/mL,[4],1.97e+07 RLU
same,MeanValue (RLU) at 1000 pg/mL,[4],1.7e+07 RLU
same,MeanValue (RLU) at 2000 pg/mL,[4],1.16e+07 RLU
same,Values (RLU) at 1 pg/mL,[4],2.77e+07 RLU and 2.73e+07 RLU
same,Values (RLU) at 5 pg/mL,[4],2.75e+07 RLU and 2.7e+07 RLU
same,Values (RLU) at 10 pg/mL,[4],2.72e+07 RLU and 2.68e+07 RLU
same,Values (RLU) at 25 pg/mL,[4],2.66e+07 RLU
same,Values (RLU) at 50 pg/mL,[4],2.64e+07 RLU and 2.53e+07 RLU
same,Values (RLU) at 100 pg/mL,[4],2.69e+07 RLU and 2.62e+07 RLU
same,Values (RLU) at 250 pg/mL,[4],2.37e+07 RLU and 2.34e+07 RLU
same,Values (RLU) at 500 pg/mL,[4],2.03e+07 RLU and 1.91e+07 RLU
same,Values (RLU) at 1000 pg/mL,[4],1.75e+07 RLU and 1.66e+07 RLU
same,Values (RLU) at 2000 pg/mL,[4],1.19e+07 RLU and 1.14e+07 RLU
same,% B/B0 at 15.625 pg/mL,[5],122%
same,% B/B0 at 31.25 pg/mL,[5],69%
same,% B/B0 at 62.5 pg/mL,[5],38%
same,% B/B0 at 125 pg/mL,[5],43%
same,% B/B0 at 250 pg/mL,[5],19%
same,Average Mean RFU of bound tracer at 15.625 pg/mL,[5],10900 RFU
same,Average Mean RFU of bound tracer at 31.25 pg/mL,[5],6170 RFU
same,Average Mean RFU of bound tracer at 62.5 pg/mL,[5],3350 RFU
same,Average Mean RFU of bound tracer at 125 pg/mL,[5],3850 RFU
same,Average Mean RFU of bound tracer at 250 pg/mL,[5],1690 RFU
same,Average Mean RFU of bound tracer at 500 pg/mL,[5],285 RFU
MVRIKPGSANKPSDD (not fully specified) [biotin labeled PIF],"% Bound, tracer alone (0 pg/mL PIF)",[6],96%
same,"AvgNetRLU, tracer alone (0 pg/mL PIF)",[6],2.28e+07 RLU
same,"MeanValue (RLU), tracer alone (0 pg/mL PIF)",[6],2.8e+07 RLU
same,"Values (RLU), tracer alone (0 pg/mL PIF)",[6],2.86e+07 RLU and 2.74e+07 RLU
B1,Kd,[7],15 nM
same,Kd,[8],10.7 nM
same,Kd,[9],17.5 nM
B2,binding of PIF to Clone #30 by SPR,PIF,significant and concentration dependent binding response
same,Kd,"PIF; SPR, 1:1 interaction model",~15 nM
same,binding of scrambled PIF (SCR) to Clone #30 by SPR,scrambled PIF (SCR),no binding was observed
